Data published in patent US7163686.

Assays:
[1] = target: biotinylated-purified IgG Fc fragments (Jackson Labs); assay: inhibition ELISA: protein in solution incubated with biotinylated IgG Fc fragments, wells coated with SpA, streptavidin-AP
[2] = target: representative VHIII-encoded IgG2a Moab (moderate affinity clan VHIII, murine 7183-encoded antibody); assay: inhibition ELISA: SpA form in solution preincubated with the murine 7183-encoded IgG2a, then wells coated with tetmDomD′; human Fc fragments added

Substance	IC50 [1]	IC50 [2]
SpA domain D (wildtype), monomer (from UniProt P38507 93-153)	200 µM	10000 µM
Staphylococcal protein A (SpA), native, recombinant rSpA (Repligen) (from UniProt P38507 37-437)	0.4 µM	2 µM
TetmDomD′ (four-domain concatamer of mutant SpA domain D′, L17D/I31A) (from UniProt P38507 93-153; P38507 93-153; P38507 93-153; P38507 93-153)		5000 µM
